Experimental data published in the supplement of paper PMC9112550, “Optimization of the antimicrobial peptide Bac7 by deep mutational scanning” (BMC Biology, 2022).

tested on: Escherichia coli TOP10; test: shrunken log2 fold change of peptide-encoding DNA abundance (4.5 h post-induction vs induction); higher = less antimicrobial activity (less host growth inhibition); details: time post-induction: 4.5 h; library: site-saturation at positions 5, 18, 19, 20
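Also: peptides expressed intracellularly from a pBAD plasmid library in pooled LB shake-flask culture, induced with 0.3% L-arabinose, DNA abundance read by NGS, three biological replicates, DESeq2 with apeglm shrinkage.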

Sequence	shrunken log2 fold change
RRIRERPPRLPRPRPRPHLFPRP	-0.178
RRIRTRPPRLPRPRPRPGNDPRP	-0.219
RRIRDRPPRLPRPRPRPSTEPRP	0.301
RRIRQRPPRLPRPRPRPPPEPRP	0.952
RRIRTRPPRLPRPRPRPVNQPRP	0.0163
RRIRFRPPRLPRPRPRPIKLPRP	-0.825
RRIRRRPPRLPRPRPRPIFNPRP	-0.124
RRIRCRPPRLPRPRPRPKFKPRP	-0.287
RRIRWRPPRLPRPRPRPDQTPRP	-0.00176
RRIRKRPPRLPRPRPRPCVWPRP	0.205
RRIRGRPPRLPRPRPRPKRTPRP	1.01
RRIRCRPPRLPRPRPRPTRCPRP	0.236
RRIRIRPPRLPRPRPRPKRQPRP	0.174
RRIRPRPPRLPRPRPRPNHSPRP	-0.553
RRIRFRPPRLPRPRPRPNWDPRP	-0.269
RRIRSRPPRLPRPRPRPRWWPRP	1.26
RRIRYRPPRLPRPRPRPFWKPRP	0.226
RRIRCRPPRLPRPRPRPTVNPRP	-0.184
RRIRERPPRLPRPRPRPPHCPRP	0.118
RRIRRRPPRLPRPRPRPQDDPRP	-0.0295
RRIRPRPPRLPRPRPRPFHHPRP	-0.763
RRIRVRPPRLPRPRPRPVWFPRP	-0.0288
RRIRYRPPRLPRPRPRPKWEPRP	-0.263
RRIRWRPPRLPRPRPRPKHKPRP	0.0536
RRIRSRPPRLPRPRPRPFEPPRP	-0.268

Sequence	shrunken log2 fold change
RRIRHRPPRLPRPRPRPFYLPRP	-0.915
RRIRGRPPRLPRPRPRPAPCPRP	0.426
RRIRIRPPRLPRPRPRPCQKPRP	-0.0157
RRIRFRPPRLPRPRPRPDHLPRP	-0.00942
RRIRIRPPRLPRPRPRPEDMPRP	0.0397
RRIRYRPPRLPRPRPRPNGSPRP	-0.289
RRIRQRPPRLPRPRPRPQSSPRP	0.0994
RRIRARPPRLPRPRPRPFLFPRP	0.162
RRIRSRPPRLPRPRPRPTHHPRP	0.189
RRIRNRPPRLPRPRPRPMMKPRP	2.77
RRIRWRPPRLPRPRPRPTKSPRP	0.176
RRIRDRPPRLPRPRPRPQITPRP	-0.0201
RRIRMRPPRLPRPRPRPHAHPRP	-0.0269
RRIRIRPPRLPRPRPRPPKDPRP	-0.674
RRIRIRPPRLPRPRPRPYCCPRP	-0.476
RRIRARPPRLPRPRPRPFVQPRP	-0.00645
RRIRARPPRLPRPRPRPDWVPRP	0.517
RRIRKRPPRLPRPRPRPGAAPRP	1.54
RRIRNRPPRLPRPRPRPGVEPRP	0.604
RRIRSRPPRLPRPRPRPLLWPRP	0.236
RRIRPRPPRLPRPRPRPSGLPRP	-0.199
RRIRCRPPRLPRPRPRPIIVPRP	-0.425
RRIRTRPPRLPRPRPRPERVPRP	0.296
RRIRERPPRLPRPRPRPIRLPRP	-0.0614
RRIRKRPPRLPRPRPRPLTRPRP	0.31

Sequence	shrunken log2 fold change
RRIRDRPPRLPRPRPRPWKDPRP	-0.0129
RRIRRRPPRLPRPRPRPNKKPRP	-0.272
RRIRTRPPRLPRPRPRPGWRPRP	0.69
RRIRRRPPRLPRPRPRPHANPRP	0.275
RRIRWRPPRLPRPRPRPGTVPRP	-0.148
RRIRVRPPRLPRPRPRPCKYPRP	-0.725
RRIRPRPPRLPRPRPRPQFLPRP	-0.164
RRIRERPPRLPRPRPRPGHCPRP	0.0591
RRIRERPPRLPRPRPRPLCWPRP	-0.0772
RRIRNRPPRLPRPRPRPDFIPRP	-0.111
RRIRRRPPRLPRPRPRPWWNPRP	-0.188
RRIRPRPPRLPRPRPRPDRCPRP	0.584
RRIRMRPPRLPRPRPRPWRAPRP	0.595
RRIRSRPPRLPRPRPRPPEKPRP	0.797
RRIRLRPPRLPRPRPRPGTCPRP	0.0703
RRIRMRPPRLPRPRPRPHTLPRP	-0.119
RRIRHRPPRLPRPRPRPPCFPRP	-0.0882
RRIRNRPPRLPRPRPRPYPKPRP	0.0245
RRIRPRPPRLPRPRPRPDWKPRP	0.286
RRIRQRPPRLPRPRPRPMCMPRP	0.0416
RRIRERPPRLPRPRPRPICFPRP	-0.221
RRIRARPPRLPRPRPRPLYWPRP	-0.194
RRIRSRPPRLPRPRPRPLWYPRP	-0.327
RRIRNRPPRLPRPRPRPLWGPRP	-0.192
RRIRVRPPRLPRPRPRPAFKPRP	0.086
